In experiment [1] the target is Trefoil factor 3 (TFF3), recombinant mature form (residues 22-80) (human). The experiment can be described thus: SPR; Biacore T200; TFF peptides immobilised on a CM5 chip (10 mM sodium acetate pH 4.0); purified proteins as analytes at 30 µL/min, 2 min association; multiple cycle kinetics, 1:1 model.
The target in a further experiment is T1, murine TFF3 (mTFF3) (mouse, UniProt Q62395 23-81).
T1 chain: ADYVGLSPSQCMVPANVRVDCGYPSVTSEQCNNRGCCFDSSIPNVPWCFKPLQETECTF
The experiment can be described thus: SPR. On the technique in general: Surface plasmon resonance follows binding to a sensor surface in real time, without labels.

What is called Kd is the equilibrium constant for the complex coming apart. On to “extracellular domain of CD147 (CD147^ECD) (domain or fragment)”, for which the Kd in experiment [1] was determined as 2030 nM.

B1: murine CD147^ECD (mCD147^ECD) (domain or fragment)
chain: AAGTIQTSVQEVNSKTQLTCSLNSSGVDIVGHRWMRGGKVLQEDTLPDLHTKYIVDADDRSGEYSCIFLPEPVGRSEINVEGPPRIKVGKKSEHSSEGELAKLVCKSDASYPPITDWFWFKTSDTGEEEAITNSTEANGKYVVVSTPEKSQLTISNLDVNVDPGTYVCNATNAQGTTRETISLRVRSR
As for B1, in the experiment with murine TFF3 (mTFF3), the affinity, expressed as Kd, was 2510 nM.
